This note sets out measurements from paper PMC10174515.

Substrate in this series: O=C(O)C(=O)O
Briefly: purified protein. Particulars: pH 3.1, 37 °C, MBTH 0.11 mM, DMAB 1.6 mM, HRP 0.1 U/ml, potassium oxalate, concentrations up to 400 uM, substrate (product) inhibition data excluded.

B1: barley oxalate oxidase (OxOx) (Hordeum vulgare) (protein)
chain: SDPDPLQDFCVADLDGKAVSVNGHTCKPMSEAGDDFLFSSKLTKAGNTSTPNGSAVTELDVAEWPGTNTLGVSMNRVDFAPGGTNPPHIHPRATEIGMVMKGELLVGILGSLDSGNKLYSRVVRAGETFVIPRGLMHFQFNVGKTEAYMVVSFNSQNPGIVFVPLTLFGSDPPIPTPVLTKALRVEAGVVELLKSKFAGGS
For B1, the Michaelis constant (Km) (as a rule, the concentration of substrate that gives half-maximal velocity) came to 256 µM.
